Test: yeast display, Sf9 membrane polyspecificity reagent, FACS + sequencing; frameworks hold sequencing errors
How it was run: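 Nanobodies from a synthetic yeast display library (Saccharomyces cerevisiae BJ5465), induced 36–48 hours with galactose, were stained 1 hour at 4 °C with 10% biotinylated, detergent-solubilized Sf9 membrane reagent, enriched on streptavidin microbeads, then FACS-sorted. Anti-HA (expression) and streptavidin (reagent binding) fluorescence set low and high (top ~1%) gates. Polyreactivity labels come from the gate of origin. Genes were colony-PCR amplified, MiSeq 2 × 250 sequenced and filtered by CDR length.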

Sequence | polyreactivity (PSR sort gate)
QVQLVESGGGLVQAGGSLRLSCAASGSTFARYAMGWYRQAHGKERELVAAISRRGGSTYYADSVKGRFTISRDNAKNTVYVQMNSLKPEDTAVHYCAARYGIISSFEYDYWGQGTQVTVSS | high polyreactivity
QFQLVESGGGLVQAGGSLRLSSAASGFIFAHNAMGWYRQAPGKERELVDAITSSGGSTYYADSVKGRFSISRDNAKNTVYLQMNSLKPEDTAVYYCNAYTYARRGYDYWGQGTQVTVSS | high polyreactivity
QVQLVESGGGLVQAGGSLRIICAASGSTFTWNDMRWYRQAPGKERELVAGISLSAGSTYYADSVKGRFTISRDNAKNTDYLQMKSLKPEHTAVYYCNADPGGPDTYEEHDYWGQGTQVTVSS | low polyreactivity
QVQLVESGGGLVQAGGSLRLSCAASGSIFQYYAMGWYRQPPGKEREFVAAITSDGSSTYYADSVKGRFTISRDNAKNTVYLQMNSLKPEDTAVYDCAAGWVGDRRPSMYYWGQGTQVTVSS | high polyreactivity
QVQLVESGGGLVQAGGSLRLSCAASGIIFDWYAMGWYRQAPGKERELVAAISDSGDTTYYADSVKGRFTISRDNAKNTVYLQMNSLKPEDTAVYYCAAVSYQYYDLDYWGQGTQVTVSS | high polyreactivity
QVQLVESGGGLVQAGGSLRLSCAASGRIFRYYAMGWYRQAPGKEMELVAAITRGGSTNYADSVKGRFTISRDNAKNTGYLQMNSLKPEDTAVYYCATRQSWYPRWMDYWGQCTQVTVSS | high polyreactivity
QVQLVESGGGLVQAGGSLRLSCAASGRTLYFNAMAWYRQEPGKERELVADISIGGSTYYADSVKGRFTISRDNAKNTVYLQMNSLKPEDTAVYYLATDYLGGGKRYYYWGQGTQVTVSS | high polyreactivity
QVQLVESGGGLVQAGGSLRLSCAASGVILSAYAMGLYRQAPAKERELVAAITGSGGRTYYADSVKGRFTISRDNAKNTVYFQMNSLKPEDTAVNYCAARYTYVGSYTYNSWGQGPQVTVSS | high polyreactivity
QVHLVESGGGLVQAGGSLRLSCAASGITDWIYAMGWYRQAPGKERELVAAITGRGGSTYYADSVKGRFTISRDKAKNTVYLQMNSLKPEVTAVDYCAAESWYSTYDYWGQGTQVTVSS | high polyreactivity
QVQLVESGGGLVQAGGILRLSCAASGSIFYRYAMGWYRPAPGKERELVAAINWSGGITYYADSEKGRFTISRDNAKITFYLQMISLKPEDTAVYYCAARTHVYNWGYYYWGQGTQVTVSS | high polyreactivity
QVQRVESAAGLVQAGGSLRLSCAASGFIIVYYSMGWYRQAPGKERELVAAISRRGGSTYYADSVKGRFTISRDNAKNTVYLQMNSLKPEDTAVYYCNAVNVLAPSRGRRYDYWGQGTQVTVSS | high polyreactivity
QVQLQESGGGLVQAGGSLRLSCAASGTITVLYKMGWFRQAPGKEREFVASINYGTSTYYADSVKGRFTVSRDSAKNTVYLQMNSRKPEDTAVYYCAAAYRWQDVYRYWGQGTQVTVSS | low polyreactivity
QVQLVESGGGLVQAGGSLRLSCAASGLILDGYAMGWYRQAPGKERELVAAITRSGGRTYYADSVKGRFTISRDNAKNTVYLQMNSLKPEDTAVYYCAALGWSGRYRYDYWGQGTQVTVSS | high polyreactivity
QVQLVESGGGLVQAGGSLRLSCAASGRIFPGNALGWYIKAPGKEREFVASINWSVGSTFYADSVKGRFTISRDNAKHTVYLQMNSLKPEDTAVYYCAARTFGYYRSRSFNYWGQGTQVTVSS | high polyreactivity
QVQLVESGGGLVQAGGSLRLSCAASGRTFYRNVMGWYRQAPGKERELVAAISSRGGSTYYADSVKGRFTISRDNAKNTVYLQMNSLKPEDTAVYYCAAPRASGYYWGQGTQVTVSS | high polyreactivity
QVQLVESGGGLVQAGGSLRLSCAASGSIFADYAMGWYRQAPGKERELVAAITGSGGRTYYADSVKGRFTISRDNAKNTVYLQMNSLKPEDTAVYYCAVRHRYTRAYWGRDYWGQGTQVTVSS | low polyreactivity
QVQLEESGGGLVQAGGSLRLSCAASGSIFTVNAMGWYRQATGKQMELVAAISQSGGSTYYADSVKGRFTISRDNAKNTVYLQMNSLKPEDTAVYYCNALLFIVHGDKSQTMDYWGQGTQVTGSS | low polyreactivity
QVQLVESGGGLVQAGGSLRLSCAASGRIFPSYAMGWYRQAPGKERELVAAISYSGASTYYADSVKGRFTISRDYAKNTVSLQMNSLKPEDTAVYYCNQLVEEDYWGQGTQVTVSS | low polyreactivity
QVQLQESGGGLVQAGGSLRLSCAASGTIFTARFMGWSRQAPGKERDLVATITDGGNTNHADSVKGRFTISRDNAKNTVYLQMNSLKPEDAAVNYSAAGEVDNDTLLYWGQGSQVTVSS | low polyreactivity
QVQLVESGGGLVQAGGSLRLSCAASGRTFSEYAMGWYRQAPGKERELVAAITENGGSTYYADSVKGRFTISRDNAKNTVYLQMNSLKPEDTAVYYCAAETWADWYSEFYWGQGTQVTVSS | high polyreactivity
QVQLVESGGGLVQAGGSLRLSCAASGRIFYGYAMGWYRQAPGKEREFVARINVSGTSTFYADSVKGRFTISRDNAKNSVYLQMHSLKPEDTAVYYCAARGLPSNYYYYVHGYIMDYWGQGTQVTVSS | low polyreactivity
